Measured values taken from a protein production outcome set (Wang et al. 2014).

Experiment: label from the status in PepcDB records

Row | Sequence | protein production
1 | MLKYSNHMAFKDLREYIEFMKKKGKLIEVDDEVSVDLEIAEITRKATYAHLPPLLFKRVKNYENWKIVSNIFYSIESLYEIFGTNKLESISEGFLSNLSNMPITFFDKIKSLREILGLGKVMPKAKSPSFKEEKNLDLTKIPAIKTWPKDAGRYLTFSITITKDPETDVHNLSVYRVQILNEKEAIIHWQAFKRGALTAKKYLEKGISKIPIAVVTGVDPAIAFTAASPVPHGIDKYMFAGILRGEGIDVAELDNQLLVPSHSEVVLTGYVDLNDMRLEGPFGDHMGYYTPADYYPVFKLERVYIREDPIFHVTSVGKPPLEDAWIGKAVERIFLPFAKMLVPELIDMNLPEYGLFTGIGIFSIKKYYPGQAKRVMMALWGTGQLSLLKIIIVVDQDIDVHDINQVIYAIAANVDPKRDVWVIENALTDSLDPSVPFPPLGSKLGIDATRKFKEEMGKEWPEEVRSDEVVAKKADQILNKIIKRYQTSLEHHHHHH | failed
2 | MLLDYDFLLLLNDESGKPTRYYYLLQDFEKDFVAREVAQNKTKRFVKEIIGSEKASKTKNSAIEVSNTKASAMKNETIGSGDLKKVCEKIKSALPFGIISAFKPFKDAFYRDFNHNEQKLLIGAAKSGCIQSSADKLAQLKTRLLYWQDKSVKVDWDKPILIKDFFKGNNYLYRRFCFLLGKHFMDRFLKNNAKASVKDFMSSKEFVAKYRYTPKQNTERAKKLQSYLENKRDFIGFVQALNSLKDNPQDPFLPNEETSFLVFANEPTIVFNLRDYLLVLAQIFNQQAICYCESKCPIELINASPGKDFNKTQDSFPDIKFSTPNQLEQSLNALKNKLAAFFSKHPDKHNGMEFNEIAKTQIEALYMPQSSDGFDDFRKHLEESIKSFIRAKKNRYGFPKIFDVADIEQEERKVIEWREKERASKQSYKQNLQINKIANDLKRDKVVDKRTILSVIDADLDRGFIPPKDLLKQLEKISASLSKDIVIAIKQVEKLELSYALIDNIQHNTLDDTLDFTFIVGDSLSVQSLYVTFDLVIDMDRPMSEQFLNHIGELGSFESRERALEWVRLSQAKLIIETPREALKNAQLSQIEEILTGCIFNGAYRLQNDLKGNRHGNFK | failed
3 | MLLLHNARILDLTDGSTGEPTDVLLSDRVLALGPEAQQQAHSARVRSIDLGGRLLMPGLWDEHVHVGQWALASRRFLVSQTASCETALEEVATHVKRREGSDEPILQGFGFRPSLWGSNPNARQLDAVTGDRAVILVSADLHSSWCNTAAMRKLGIEGDGFLREQTSFDVQTQLSQVNPHVLDGWVGSCSTAAARLGITGIRDMEFSTDVETWLQRKADGRCPLRVEVSVYPERLDEAIAQVLATGQAPATDKPGPSRVAMGPLKVIVDGSMSTRTAWCMDSYPAGAGPDGAGIDSVTPEDLVDLMNRAKTGNLQCAAHAIGDRAAKEVLNAFEVTGISGSIEHAQVLTDADVRRFAALGVRASVQPLHLVDDRDATDVMWSDRADRCFRFADMVRAGTELALGSDAPVSPVDPWGAIRVAVERTGDRRPSWHPEQALTLSQAITASTRHVTQVVTGGPGDVIAVAHNPFDLSGNALAGITSDLTVVGGEVTAAAL | failed
4 | MLLLTPGPTPIPERVQKALLRPMRGHLDPEVLRVNRAIQERLAALFDPGEGALVAALAGSGSLGMEAGLANLDRGPVLVLVNGAFSQRVAEMAALHGLDPEVLDFPPGEPVDPEAVARALKRRRYRMVALVHGETSTGVLNPAEAIGALAKEAGALFFLDAVTTLGMLPFSMRAMGVDYAFTGSQKCLSAPPGLAPIAASLEARKAFTGKRGWYLDLARVAEHWERGGYHHTTPVLLHYALLEALDLVLEEGVAARERRAREVYAWVLEELKARGFRPYPKASPLPTVLVVRPPEGVDADRLVRALYAEGVAVAGGIGPTRGQVLRLGLMGEGARREAYQAFLKALDRALALA | not failed
5 | MLLLWLVVLVLGVAYLAHRRTPPAPALGISAAYLILMGVFSHAPGWLLLVFWLLWLAVALPLALPDLRRRVLSGPLFAWFQKVLPPMSDTEREAIEAGTVWWDGELFSGRPDWQKLLDYPKAQLTEEEQAFVDGPTEELCAMVSDWDIGQRMDLPEEAWAFIKQHGFFGLIIPKEYGGKGFSAFAHSQVVMKLATRSGDLASTVMVPNSLGPAELLLHYGTDEQRQRYLPSLAKGDDIPCFALTGPYAGSDAGGMTDVGIVCKGEWEGREVLGLRLTWEKRYITLGPVATLLGLAFKCHDPDHLLGDEEDLGITLALIPTDTPGVEIGRRHVPLGAAFMNGPNSGKDVFVPLEYIIGGQEMIGKGWMMLMNCLSVGRSISLPAVGTSAGKASSYVSGRYAQVREQFNVPIAAFEGIQEALARIGGNAWLMDSARILTANAVDLGEKPSVLSAILKYHLTERGRECIAHAMDIHGGKGIIMGPNNYLGRSWQGAPIFITVEGANILSRNLMIFGQGAIRCHPYVLKEMELAQREDKDQAAREFDALLVKHIGFAVGNAASSFLLSLSCGHLGNAPGDRISRPYFRALNRLAASFALLADFSMMLLGGELKRKERLSARLGDVLSYLYLGSAALKRYHDLGNPDYLHPLLRWAMEENLGKAEAALEDLLNNFPSRFFGCALKVLVLPFGRRHKGPGDELDAEIAEILGRPDDDPALQAILAGAFLPKDPQDPVGALAHAFDAVRESAALEKTLHKAIKEGRVQPQAGQNPIDAGAAAGVLSAEQAQALHQAEAARRKVIDVDDFAKEELQLADGRIR | failed
6 | MLLSHAFGLFTHPEDEWVSIKKEHEHPTRLYVAYVVVLAAIAPICAYISTAHFGWSIGSERLIKLTEISALQMSVLTYLAMLVGVFALGYAINWMAKTYGAKEEHVPSNGIALAAYSCTPLFLAGFALLYPVPWFNAVVFLAAACYGAWLMYDGLPIVMGIEKERAVMYGGALLTVALVILVSTRVGSVILWNLGLGPVFVSG | failed
7 | MLLSSCQSLFSPAYQSTLRPSDNPQTVEQVQKNDPRAQMGAREHPRIVASYGGEYRDAKTERLVARIAGALTAVSENPQQSYRITILNSPAINAFALPGGYLYVTRGLLALANDASEVAAVLSHEMGHVTANHGIERQRREEAEVIASRVVAEVLSSDLAGKQALARGKLRLAAFSRQQELQADVIGVRMLGEAGYDPYASPRFLDSMAAYARFSSADPENDQSLDFLSSHPNTPQRIELARRHARAFGQEGQVGDRGRDWFLDGIDGLLYGDSPQEGYVRGQTFLHGTLGIRFDVPEGFVIDNKVEAVLATGPGDMAIRFDGVADPKQTSLANYLTSGWVAGLLPETVKETQINGLEAATARASADKWDFDVTVIRVGQQIFRFLTAVPKGNTQLDSIANVLRTSFRKMTPQEIASLKPLRVRVVTVKPGETVATMAARMMGTERKLDMFRMINAMSATATLQPGQRVKIISELEHHHHHH | failed
8 | MLLTATLLGLIAALGILDGRLLGVSMIDRPLVMCALTGLVCGNLHEGILIGATLELIFLGNVAIGAAVPPDVVTGSVLATAFSIMSGRGPEAALTIAIPISMLAQTLGVLVRVVNARFGHMADRYAAQGNTRMVAVMHLGGPTLLYFLSGFLPVFFAILLGSAAVTWFLDAIPAFITNGLVVASKILPALGFALLISMMLSSKLMPYLGLGFLIAAYTKLDIIAIALFAVVLAFIISQFLNTSQQEG | failed
9 | MLLTIIYIIAITAEAMTGALSAGRRSMDWFGVILIACVTALGGGSVRDVLLGHYPLTWVKHPEYLVLTCCAALFTILIAKWMRHLRNIFLILDALGLIGFTIIGCQIALQMGHGFVVSAVAGVLTGVSGGILRDILCNDVPLVFRRELYASISFVAVICYWLCLNIGMSLELTVIFTLIFGFVLRLIAIYFGLEMPKFIYQEDDADSASSTDKH | failed
10 | MLLTREYIDKAFWQKLIAIGLPVSLQSMLFALLGVVDIFMVSLLGESATAAVGVGNRIFFFNLAVVFGLCGAVTVLASQYYGSGNMAGIRRTLAQSWCISILVTLPFIVLYAIFDEEIVSFMSDDPEYVTYARDYLVVTGFSLIATAIVVPIEAVLRSVGQTKLATNVSISAIVVNAVLNSVLIFGLFGFPQWGVFGAAVGTFVSRFFQTAVLIYFFYNRYAHLIPTKFDWAQGRLKQYRQKYFKVSLPMLVHDALWTGGLIVYSIIYGQLGVSELAIISFLSPIEGVLISTFMGFAVAASVLLGNDIGAKHYDRVEKTAWWYVLTSAILATLLFFLVWLSSPLIHHLLVLSPLTDAEMALNVCLVMALGMILRVFNMVGIGGVLKSGADIRYSIFIDTFGQWAIGIPLTYYTGMVLGLPLHFVLMSLLAEEFVKGVLTTYRIQSKRWINNMVEDDQTVTA | failed
11 | MLLYVLIISNDKKLIEEARKMAEKANLELRTVKTEDELKKYLEEFRKESQNIKVLILVSNDEELDKAKELAQKMEIDVRTRKVTSPDEAKRWIKEFSEEGGSLEHHHHHH | not failed
12 | MLMEIRESVKERIEEIIKEIAPQWEGEIELKETPDPKLGDFGTPIAFKLAKLLKRPPIEIAEKIVEKLKLNLPEGIKDVKAVNGYINVFIDYPHFARILINDILAKGDRFGSSEIGKGKKVIVEHTSVNPTKPLHMGHARNAILGDVMARILRFLGYEVEVQNYIDDLGIQFAQVYWGYLRLKEEFERIMNELRERGLKDNPIDHALGLLYVEVNRRLEDNPELENEIRDIMKKLESGELYGRKLAEEVVRAQMVTTYKLGVKYDLLVWESDIVRRKLFEIALELLSKNENFYIPSDGKYRGAFVMDLRKLFPDMKNPILVLRRSDGTATYTGKDIAYHLWKFGKIDVDLLYKEWDSTTWTTAPDGKSMPNKFGNANIVINVIGAEQKHPQLAIKYALQLLGFEDAAANLYHLAYEHVERPEGKFSGRKGTWVGFTVDEVIQEAVKRARELIEEKNPALSDEEKAEVAEKVGIGAIRYNLIKYSPDKKIIFRWEDVLNFEGESAPYIQYAHARCSSILRKAEEEGIKVDPETLFKNADFTKLSERERELVIMLSKFPRIVEQAGKDVKPHLIAWFANELASLFNKFYMDHPVLKAEEGVREARLLLVMAVEQVLKNALYLMGIEAPERM | not failed
13 | MLMEVKALAHAKNDSVAVATDDLKEGEEIQVAFLDNNEKTKITTAEVIPLGHKISLKDIKKGENVIEYGEVIGAATKDIKRGEHVHIHNIKSLRW | not failed
14 | MLMPRRMKYRKQQRGRLKGATKGGDYVAFGDYGLVALEPAWITAQQIEAARVAMVRHFRRGGKIFIRIFPDKPYTKKPLEVRMGKGKGNVEGYVAVVKPGRVMFEVAGVTEEQAMEALRIAGHKLPIKTKIVRRDAYDEAQ | not failed
15 | MLMSFILLISTSMILISVFSYVLIALIVLGIVLSLISLLSPRVSYVSSVYLIGLTVYLNPGFSLTQSLINTVPILGEINMLSGLLKTPVTSIISSLFSLALLNLGIKGYEIYLSKHADIVKLDSIIFSQHGLPKQANWNIVVNSEVKLLKSNEKLILSNTPEAKYELCPTLVDHKYYVPNKVTGLAFEGEVIRINYSPVDGVPYEKFRNCFTVFEVEGLPPDTSFVIEINGASLKLKDRKFAKLSLEPLYWKVNEIRISREDEEEIYEPDIKEGLTFRGGTVKINFRRKVIRYKTAKIPSIENWDPGIWVGQEVYGYRVIEVIGLGGNGYVMKVEKNGLLYAMKVLSVNKFTNSLEHFDNLLKESENLEKLSKDPRLVSIYGSFVDKNNIQSALAGDYTSYYKYPPAIIMEFMEGGTLFDLISRVDLVQSKYWQYIVKLVIKEIAKALTFLHKRGYVHLDVKPQNIFLKEKINGEPEVVYKILSSTPGIIKLGDLGSAVRVGEKITQATPAYSPPEQIEAVITGKGAQPSMDNYALGVTLYKLLTMKNLDYVNYLDKAFDEYIKGDPSIAMKYINMAKMSMVNFKPKLPHNTLPELANVVQGTLVVDPKRRLTSYDIVKILEG | failed
16 | MLNADVKETIHYVDENGKELAGTYTKDVHYTRTATVHYDQNGNATVTYGEWKADGSFDKVANPDIDGYFTLDKGVDGKTVTDPQNQADFVENVIYYKTDQNVTPLEHHHHHH | not failed
17 | MLNDGVYLAQARGMAGFVHAKLTVKDNKIVGVDLDLTTETPENKPKVEQQLKKEILTRQSADIDAVSGATFTSNGVKEAVQQTLKQAEKLEHHHHHH | not failed
